In the RNAGym collection of RNA variant scans (doi:10.7554/elife.80360):

B1: Hammerhead Ribozyme (parent)
chain: ACCGGAUGUGCUUUCCGGUCUGAUGAGUCCGUGAGGACGAAACAG

Variants of: B1
Assay: self-cleavage, relative activity (ratio to wild type); higher = more cleavage; co-transcriptional
ACCGGAUGUGCUUUCCGGUCUGAUGAGUACGUGAGGACGAGACAG gave a self-cleavage of 0.339. Variant ACCGGAUGUGCUUUCCGGUCUGAUGAGUCCGUGACGACGGAACAG has a self-cleavage of 0.28. In the case of ACCGGAUGUGCUUUCCGGUCUGAAGAGUCCGUGAGGACGAAACUG, the self-cleavage is reported as 0.712. For AGCGGAUGUGCUUUCCGGUCUGAUGAGUCCGUGAGGACGAUACAG, the self-cleavage was 0.293. ACCGGAUGUGCUUUCCGGUCAGAUGAGUCCGUGAGGACGAUACAG showed a self-cleavage of 0.325. In the case of ACCGGAUAUGCUUUCCGGUCUGAUGAGUCCGUGAAGACGAAACAG, the self-cleavage is reported as 0.939. In the case of ACCGGUUGUCCUUUCCGGUCUGAUGAGUCCGUGAGGACGAAACAG, the self-cleavage is reported as 0.522. For ACCGGAUGUGCUUACCGGCCUGAUGAGUCCGUGAGGACGAAACAG, the self-cleavage was 0.474. Variant ACCGGAUGUGCUGUCCGGUCUGAUGAGUCCGUGAGGACGACACAG has a self-cleavage of 0.348. In the case of ACCGGCUGUGCUUUCCCGUCUGAUGAGUCCGUGAGGACGAAACAG, the self-cleavage is reported as 0.269. In the case of ACCGUAUGUGCUUUCCGGUCUAAUGAGUCCGUGAGGACGAAACAG, the self-cleavage is reported as 0.269. Work on ACCGUAUGUGCUUUCCGGUCUCAUGAGUCCGUGAGGACGAAACAG yielded a self-cleavage of 0.251. With ACCGGAUGUGCAUUCCGGUCUGAUGAGUCCGUGAGGACGAAAGAG the self-cleavage was 0.301. Variant ACCGGAUGUGCUUUCCGGUAUGAUGAGUCGGUGAGGACGAAACAG has a self-cleavage of 0.353. In the case of ACCAGAUGUGCUUUCCGGUCUGAUGAGUCCGUGAGGGCGAAACAG, the self-cleavage is reported as 0.391. ACCGAAUGUGCUUUUCGGUCUGAUGAGUCCGUGAGGACGAAACAG showed a self-cleavage of 1.78. For ACCGGAUGUGCUUUGCGGUCGGAUGAGUCCGUGAGGACGAAACAG, the self-cleavage was 0.326. Variant ACCGGAUGUGCUUUCCGCUCUGAUGAGUCCGUGAUGACGAAACAG has a self-cleavage of 0.399. For ACCGGAUGUGCUUUCCGUUCUGAUCAGUCCGUGAGGACGAAACAG, the self-cleavage was 0.322. Variant ACCCGAUGUGCGUUCCGGUCUGAUGAGUCCGUGAGGACGAAACAG has a self-cleavage of 0.599. With ACCGGAUGUGCUUUCCGGUCUGAUGAGUCUGUGAGAACGAAACAG the self-cleavage was 0.547. For ACCGGAUGUGCUUUCCGGUCUGUUGAGUCCGUGAAGACGAAACAG, the self-cleavage was 0.471. In the case of ACCGGAUGGGCUUUCCGGUCUGAUGAGUCCGAGAGGACGAAACAG, the self-cleavage is reported as 1.31. Work on ACCGGAUGUGCUUUCCGGUGUGAUGAGUCCGUGUGGACGAAACAG yielded a self-cleavage of 0.383. With ACCGGAUGUGCUUUCCGGUCUUAUGAGUCCGAGAGGACGAAACAG the self-cleavage was 0.282. ACCGGAUGUGCUUUCCGAUCUAAUGAGUCCGUGAGGACGAAACAG showed a self-cleavage of 0.276. For AUCGGAUGCGCUUUCCGGUCUGAUGAGUCCGUGAGGACGAAACAG, the self-cleavage was 0.983. ACCGGGUGUGCUUUCCGGUCUGAUGAGUCCGUGAGUACGAAACAG gave a self-cleavage of 0.314. ACCGGAUGUGCUUUCCGGUCUGAUGAGUCAGUGAUGACGAAACAG showed a self-cleavage of 1.17. ACCGGAUGUGCUUUCCGGUCUGAUGAGUCCGUGAUGACGAAACAA showed a self-cleavage of 0.473. Variant ACCGGAUGUGCUUUCAGGUCUGAUGAGUCCGGGAGGACGAAACAG has a self-cleavage of 0.899. For ACGGGAUGUGCUUUCCGGUCUGAUGAGUCCGUGAGGACUAAACAG, the self-cleavage was 0.284. Variant ACCGGAUGUGCUAACCGGUCUGAUGAGUCCGUGAGGACGAAACAG has a self-cleavage of 1.15. ACCGGGUGUGCUUUCCGGUCUGAUGAGUCCGUGAGGACGAAAGAG showed a self-cleavage of 0.284. Variant ACCGCACGUGCUUUCCGGUCUGAUGAGUCCGUGAGGACGAAACAG has a self-cleavage of 0.72. For ACCGGAUGUGCCUUCCGGUCUGAUGAGUCCGUGAGGACGAAAGAG, the self-cleavage was 0.305. For ACCGGAUCUGCUUUCCGGUCUGAUGAGUCCGUGAGGACGAUACAG, the self-cleavage was 0.388. In the case of ACCGGAUGUGCUUUCCGGUCUGAUGAGCCCGUGAGGACGAAUCAG, the self-cleavage is reported as 0.325. Work on ACCGGAUGUGCUUUCCGGUCUGAUUAGUCCUUGAGGACGAAACAG yielded a self-cleavage of 0.419. In the case of ACCGGAUGUACUUACCGGUCUGAUGAGUCCGUGAGGACGAAACAG, the self-cleavage is reported as 1.21. For ACCGGAUGUGCUUUCCGGUCUUAUGAGUCCAUGAGGACGAAACAG, the self-cleavage was 0.397. In the case of ACCGGAUGUGCUUUCCGGUCUGAUGAGUCCGUGAGGAAGAAACUG, the self-cleavage is reported as 0.396. Work on ACCGGAUGUGCUUUCCGGUUUGAUGAUUCCGUGAGGACGAAACAG yielded a self-cleavage of 0.332. For ACCGGAUGUGCUUGCCGGUCUGAUGAUUCCGUGAGGACGAAACAG, the self-cleavage was 0.515. ACCGGAUGUGCUUUCCGGUCUGAUGAGUCCGUGAGGGCGAAGCAG showed a self-cleavage of 0.264. For ACCGGAUGUGCGUUCCGGUCUGAUGAGUCCGUGAGGCCGAAACAG, the self-cleavage was 0.88. Variant UCCGGAUGUGCUUUCCGGUCUAAUGAGUCCGUGAGGACGAAACAG has a self-cleavage of 0.372. ACCGGAUGUGCUUUCCGGUCUGAUGAGUACGUGAGUACGAAACAG gave a self-cleavage of 0.624. In the case of UCCGGAUGCGCUUUCCGGUCUGAUGAGUCCGUGAGGACGAAACAG, the self-cleavage is reported as 0.656. Work on ACCGGAUGUGCUUUCCGGUCUGAUGAGUCCGAGAGGACGAAACCG yielded a self-cleavage of 0.581. CCCGGAUGUGCUUUCCGGUCUGAUGAGUCCGUGAGGUCGAAACAG showed a self-cleavage of 0.34. Variant ACCGGAUGUGCUUUCCCGUCUGAUGAGUCCGUGAGGAAGAAACAG has a self-cleavage of 0.451. ACCGGAUGUGCUUUCCGGUCUGAUGAGUCGCUGAGGACGAAACAG gave a self-cleavage of 0.926. ACCGGAUGUGCUUUCCGGUCUGAUGGGUCCGUGAGCACGAAACAG showed a self-cleavage of 0.307. In the case of ACGGGAUGUGCCUUCCGGUCUGAUGAGUCCGUGAGGACGAAACAG, the self-cleavage is reported as 0.394. For ACCGGAUGUGCUUUCCGAUCUGAUGAGUCCGUGCGGACGAAACAG, the self-cleavage was 0.537. AACGGAUGUGCUUUCCGGUCUGAUGAGUCCGUGAGGACGAAACAG showed a self-cleavage of 0.866.
